This data set is described as follows: protein stability index of a GFP-peptide fusion (GPS, HEK-293T) (PSI 1-6); higher = more stable.
[1] abbreviates: treatment: DMSO, c terminus: a fixed tail appended.
Where [2] appears, read: treatment: MLN4924 1 uM, 8 h, c terminus: a fixed tail appended.

± gives the standard deviation.
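Also: 24-mer peptide tiles fused after GFP, lentivirally expressed, FACS-sorted into six equal bins by GFP/DsRed ratio, decoded by Illumina sequencing, PSI is the read-weighted mean bin number.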

With FSVRPGTEATISIREDEVHRLGSP [SCNN1D], the protein stability index by setting is: under setting [1], 4.16 ± 0.16; under setting [2], 4.2 ± 0.12.

As to FTETNNHWPQGPTGPPGPPGPMGP [EMID1], the protein stability index under setting [1] was 2.58 ± 0.28 and the protein stability index under setting [2] was found to be 3.4 ± 0.5.

On to FTGRDSITCLTCQGTGYIPTEQVN [TMEM106C], for which the protein stability index was found to be 2.66 ± 0.57 under setting [1] and 3.31 ± 0.65 under setting [2].

In the case of FVSAGAAAGVAAAFGAPIGGTLFS [CLCN6], the protein stability index amounted to 2.8 ± 0.48 under setting [1] and 2.46 ± 0.21 under setting [2].

With FVVLAFLTGVLCSYPNPNEDKCPG [TMEM192], the protein stability index stood at 2.92 ± 0.52 under setting [1] and 3.22 ± 0.46 under setting [2].

On to FVVTMLKLIQKKLLDKTCDQVMEF [ZER1], for which the protein stability index is, setting by setting: under setting [1], 3.14 ± 0.39; under setting [2], 3.15 ± 0.32.

For the sequence FWPHLKASNWSTTGFGQGQGYTIN [HDAC6], the protein stability index by setting is: under setting [1], 2.38 ± 0.32; under setting [2], 2.64 ± 0.17.

FYNTEDIKDWEDRFYLLLFSFLGL [PTGFR] gave a protein stability index under setting [1] of 2.41 ± 0.7 and a protein stability index under setting [2] of 2.1 ± 0.47.

As for GADCGIQWWNAVFIMLLIGIVLPV [LYSMD4], the protein stability index by setting is: under setting [1], 2.88 ± 0.1; under setting [2], 3.03 ± 0.45.

GAPEDDEEDDGRGRGLLRWDSFSA [DENND6A]: the protein stability index is 4.92 ± 0.078 under setting [1] and 4.98 ± 0.19 under setting [2].

GAPLLPPPLPPPSPPGSGRGPGAS [ACBD3] displayed a protein stability index under setting [1] of 5.23 ± 0.21 and a protein stability index under setting [2] of 5.108 ± 0.027.

For GASSREEPPEEPEQCPVIDSQAPA [SPDEF], the protein stability index amounted to 5.69 ± 0.17 under setting [1] and 5.52 ± 0.078 under setting [2].

Consider GCSSSGSCSQGSGILHYAHGDSQQ [CRY1], for which the protein stability index by setting is: under setting [1], 3.75 ± 0.41; under setting [2], 3.67 ± 0.075.

With GEEGAPGKWQQQGDLQDTKENREE [CHGB], the protein stability index worked out at 5.57 ± 0.31 under setting [1] and 5.52 ± 0.28 under setting [2].

As for GEWGGRHPSWPWTRCLRMRPPRS, the protein stability index is, setting by setting: (treatment: DMSO, c terminus: native) 2.81 ± 0.6; (treatment: MLN4924 1 uM, 8 h, c terminus: native) 2.88 ± 0.36.

For GFHKAGSMLPPVNFSIVPYEKKFD [SPATS1], the protein stability index came to 3.64 ± 0.087 under setting [1] and 3.54 ± 0.054 under setting [2].

For the sequence GFKRDYYLIRVDGKGSIKELFPTG [VPS39], the protein stability index under setting [1] was 2.06 ± 0.29 and the protein stability index under setting [2] came to 2.25 ± 0.36.

GGDLMPAPADPTAREGLAAPPRRL [FCHO1]: the protein stability index reads like this: under setting [1], 5.19 ± 0.33; under setting [2], 5.15 ± 0.23.

Regarding GGEYQEPGGNVKGVWAPPAPGFGE [BEX5], the protein stability index amounted to 4.05 ± 0.53 under setting [1] and 4.38 ± 0.31 under setting [2].

For the sequence GGGNDRVRNLQSEVEGVKNIMTQN [VAMP8], the protein stability index was determined as 4.61 ± 0.34 under setting [1] and 4.75 ± 0.35 under setting [2].

As for GGTSWTAYSLNKIHAYNLGTNAWE [KLHDC10], the protein stability index was determined as 2.12 ± 0.34 under setting [1] and 2.08 ± 0.3 under setting [2].

For the sequence GGTTGYIYSTDLHKLDLNTREWTQ [KLHDC10], the protein stability index amounted to 2.44 ± 0.3 under setting [1] and 2.47 ± 0.43 under setting [2].

GGWNFSTQKFTDMVATANNRQTFV [CHIT1]: the protein stability index runs as follows: under setting [1], 2.55 ± 0.29; under setting [2], 2.81 ± 0.31.

For GGYLQRTTYDRRSSQERKFMEERE [RSPH3], the protein stability index runs as follows: under setting [1], 4.82 ± 0.21; under setting [2], 4.76 ± 0.17.

As for GHRLAQKLQGLENWGQDPGVSANA [PBXIP1], the protein stability index is 3.82 ± 0.2 under setting [1] and 3.87 ± 0.3 under setting [2].

For the sequence GIGKNVICDRTATPLDAFRMTSAA [GFOD1], the protein stability index runs as follows: under setting [1], 3.43 ± 0.25; under setting [2], 3.45 ± 0.17.

For the sequence GKNWSKLCKDCQVIDGRNVTVTDV [TPPP], the protein stability index by setting is: under setting [1], 3.67 ± 0.14; under setting [2], 3.92 ± 0.23.

GKSRLSPAGEMKPMPLSEGKSILL [BCL2L13]: the protein stability index reads like this: under setting [1], 3.44 ± 0.32; under setting [2], 3.44 ± 0.32.

With GKTWKQICDKHWTAKNSRVVCGMF [LOXL2], the protein stability index came to 2.06 ± 0.46 under setting [1] and 2.18 ± 0.46 under setting [2].

These data come from the supplement of paper PMC10567573.
